In the supplement of paper PMC12855868:

B1: library; numbered along this chain (parent)
chain: MAAAGGARLLRAASAVLGGPAGRWLHHAGSRAGSSGLLRNRGPGGSAEASRSLSVSARARSSSEDKITVHFINRDGETLTTKGKVGDSLLDVVVENNLDIDGFGACEGTLACSTCHLIFEDHIYEKLDAITDEENDMLDLAYGLTDRSRLGCQICLTKSMDNMTVRVPETVADARQSIDVGKTS

Variants of: B1
Assay: scaled log2 fold change in cell abundance, elesclomol vs control (0 = silent mean, 1 = nonsense mean) (scaled log2 ratio); higher = higher viability under elesclomol (loss of FDX1 cuproptosis function)
Conditions: glucose 10 mM
[1] = with ABC1 FDX1 KO, elesclomol 5 nM, 14 days
[2] = with HEK293T FDX1 KO, elesclomol 40 nM, 11 days
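Also: variant abundance is its share of total variant reads in each endpoint sample, from next-generation sequencing of the integrated ORF PCR-amplified out of genomic DNA.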

Variant	scaled log2 fold change [1]	scaled log2 fold change [2]
D139M	0.045	0.155
D139A	0.113	-0.357
D139V	0.0114	
D139N	-0.132	
D139E	0.147	0.513
D139H	-0.062	-0.315
D139S	-0.201	-1.37
D139C	-0.416	-0.576
D139L	0.0653	-0.608
D139K	0.896	0.86
D139I	-0.652	0.722
D139W	0.0888	-0.429
D139T	-0.31	-0.694
D139R	0.938	1.09
D139G	-0.228	-0.268
D139Y	-0.145	0.0051
D139P	-0.0434	-0.395
D139Q	-0.0276	0.00203
D139F	0.257	0.819
S148Q	0.313	0.39
S148A	-0.395	0.0871
S148L	0.386	0.434
S148P	0.532	0.268
S148F	0.404	0.537

Variant	scaled log2 fold change [1]	scaled log2 fold change [2]
S148I	0.277	1.81
S148M	0.0932	0.216
S148K	0.496	-0.0219
S148E	0.489	1.23
S148W	0.632	0.172
S148D	0.488	0.491
S148R	0.331	0.333
S148V	0.0179	0.35
S148G	-0.0749	-0.519
S148Y	0.363	-0.279
S148N	0.122	0.397
S148H	0.322	-0.35
S148C	0.0537	0.319
S148T	0.485	0.124
D146T	0.301	-0.841
D146R	-0.0353	
D146N	-0.093	0.538
D146Y	0.1	0.0545
D146F	-0.0311	0.866
D146G	-0.311	0.974
D146E	0.138	0.321
D146W	0.114	0.978
D146C	0.0801	0.758
D146K	0.0568	-0.151

Variant	scaled log2 fold change [1]	scaled log2 fold change [2]
D146M	-0.332	
D146I	-0.109	0.0633
D146H	-0.228	-0.639
D146S	-0.00471	0.0302
D146V	-0.227	-0.76
D146L	0.0782	-0.302
D146A	0.0826	-0.539
D146P	-0.219	0.177
D146Q	-0.0405	-0.462
L140I	-0.0613	0.225
L140T	-0.682	-0.194
L140M	0.393	0.793
L140W	-0.629	0.639
L140K	-0.153	-0.169
L140S	-0.172	
L140E	0.271	
L140V	-0.00688	0.753
L140F	-0.344	0.78
L140Q	0.178	-1.41
L140R	-0.341	-0.397
L140H	-1.29	0.795
L140A	-0.069	-1.25
L140Y	-0.351	-0.373
L140G	-0.344	0.395

Variant	scaled log2 fold change [1]	scaled log2 fold change [2]
L140C	-0.0723	-0.467
L140D	-0.319	-0.308
L140P	0.264	0.879
L140N	0.179	
A141G	-0.119	0.016
A141I	-0.168	0.617
A141R	0.0996	0.0982
A141P	0.46	-0.803
A141F	-0.22	1.03
A141M	-0.0992	0.123
A141C	0.249	-1.33
A141N	-0.0904	0.596
A141Q	0.09	0.9
A141Y	-0.374	-0.341
A141D	0.178	-0.445
A141E	0.304	-0.297
A141V	0.00876	0.0536
A141H	0.134	-0.527
A141K	0.122	-0.0127
A141T	0.135	0.788
A141S	-0.0824	0.987
A141L	-0.402	
A141W	-0.0378	-0.209
L138P	1.15	0.887

Variant	scaled log2 fold change [1]	scaled log2 fold change [2]
L138V	-0.213	-0.414
L138Q	-0.00504	0.34
L138Y	0.578	-0.246
L138E	0.986	0.639
L138I	0.0896	0.0458
L138S	0.467	0.0871
L138R	-0.0868	-0.131
L138G	0.706	0.389
L138M	0.188	0.00846
L138C	-0.108	0.251
L138H	0.199	0.223
L138N	0.767	0.557
L138T	-0.0362	0.287
L138D	1.11	1.04
L138A	0.519	-0.22
L138K	0.41	-0.306
L138F	0.0535	-0.0648
L138W	0.885	0.749
Y142N	-0.329	
Y142E	-0.1	-0.695
Y142A	-0.39	
Y142Q	-0.102	-0.021
Y142K	0.0326	
Y142G	-0.302	-0.393

Variant	scaled log2 fold change [1]	scaled log2 fold change [2]
Y142R	0.172	-1.11
Y142D	-0.228	1.12
Y142P	-1.37	
Y142W	-0.245	0.733
Y142S	-0.293	-1.45
Y142C	0.285	-0.427
Y142M	-0.877	-0.0122
Y142H	-0.0863	0.947
Y142V	-0.226	-0.606
Y142L	-0.24	-0.251
Y142I	-0.441	
Y142F	0.0438	0.876
Y142T	-0.197	0.583
L144N	0.342	-0.655
L144Q	0.137	-1.45
L144F	-0.293	1.23
L144V	-0.402	-0.057
L144C	0.106	-0.265
L144W	-0.112	-0.217
L144T	0.135	-0.511
L144H	-0.0895	-0.335
L144G	-0.079	-0.323
L144P	0.386	0.307
L144A	0.157	-0.304

Variant	scaled log2 fold change [1]	scaled log2 fold change [2]
L144D	0.171	-0.877
L144S	-0.409	0.564
L144Y	-1.21	-0.239
L144E	0.116	0.0837
L144K	0.175	-0.503
L144I	0.399	-0.124
L144M	0.249	-0.887
L144R	0.343	0.505
R147F	0.104	-0.384
R147S	-0.721	-0.596
R147V	0.177	0.544
R147D	0.339	0.314
R147Q	0.0113	-0.0201
R147K	-0.354	-0.267
R147C	-0.148	0.356
R147M	0.167	-0.232
R147G	-0.409	0.00185
R147L	-1.37	-0.851
R147T	-0.344	-0.0355
R147P	0.35	-0.0221
R147E	0.159	-0.255
R147I	0.215	-0.172
R147Y	0.159	0.243
R147A	0.283	

Variant	scaled log2 fold change [1]	scaled log2 fold change [2]
R147N	0.171	0.904
R147H	-0.0226	-0.215
R147W	0.275	-0.126
R149M	0.689	0.499
R149T	1.01	0.998
R149V	0.231	0.529
R149F	0.872	1.08
R149P	1.05	0.985
R149A	0.375	0.982
R149K	0.66	-0.00324
R149Q	0.899	1.02
R149C	0.906	1.99
R149G	0.658	0.436
R149I	0.876	0.53
R149E	1.13	1.11
R149L	0.679	0.937
R149D	1.08	0.943
R149S	0.96	0.508
R149N	1	1.05
R149H	0.625	0.597
M137T	0.14	-0.403
M137Y	-0.108	1.02
M137V	-0.0968	-0.154
M137P	-0.0177	-0.842

Variant	scaled log2 fold change [1]	scaled log2 fold change [2]
M137Q	0.0471	-0.244
M137L	0.182	1.39
M137R	-0.477	-0.0264
M137S	-0.337	-0.153
M137N	0.119	
M137W	-0.244	1.1
T145G	0.132	1.06
T145K	-0.0518	-0.472
T145W	0.478	-0.147
T145M	0.318	-0.375
T145N	0.291	-0.855
T145Q	0.226	-1.28
T145L	0.169	0.152
T145I	0.244	-0.228
T145C	-0.124	-0.351
T145S	0.00135	
T145D	-0.00306	-0.25
T145F	-0.258	-0.0341
T145Y	0.224	0.0425
T145E	-0.0343	-0.344
T145H	-0.157	-0.272
T145P	0.209	-0.123
T145A	-0.6	0.187
T145R	0.0604	-0.726

Variant	scaled log2 fold change [1]	scaled log2 fold change [2]
T145V	0.027	-0.443
G143P	0.108	-0.153
G143S	-0.338	0.106
G143V	0.0102	-0.395
G143F	-0.335	0.343
G143L	-0.0816	0.114
G143Y	0.0128	0.695
G143A	0.189	1
G143N	-0.705	0.0112
G143E	-0.312	-0.391
G143K	-1.13	0.329
G143I	-0.102	-0.507
G143C	-0.043	0.0676
G143Q	-0.167	0.225
G143D	0.242	0.59
G143W	-0.202	-0.602
G143T	0.153	-1.08
G143M	0.337	-0.813
G143H	-0.162	-0.302
G143R	0.384	-1.11
